Results on one substance are retold here after article PMC5123381.

This experiment has as its target T1, CD11a (human (endogenous in NK92-CD16)) (UniProt P20701).
T1 sequence: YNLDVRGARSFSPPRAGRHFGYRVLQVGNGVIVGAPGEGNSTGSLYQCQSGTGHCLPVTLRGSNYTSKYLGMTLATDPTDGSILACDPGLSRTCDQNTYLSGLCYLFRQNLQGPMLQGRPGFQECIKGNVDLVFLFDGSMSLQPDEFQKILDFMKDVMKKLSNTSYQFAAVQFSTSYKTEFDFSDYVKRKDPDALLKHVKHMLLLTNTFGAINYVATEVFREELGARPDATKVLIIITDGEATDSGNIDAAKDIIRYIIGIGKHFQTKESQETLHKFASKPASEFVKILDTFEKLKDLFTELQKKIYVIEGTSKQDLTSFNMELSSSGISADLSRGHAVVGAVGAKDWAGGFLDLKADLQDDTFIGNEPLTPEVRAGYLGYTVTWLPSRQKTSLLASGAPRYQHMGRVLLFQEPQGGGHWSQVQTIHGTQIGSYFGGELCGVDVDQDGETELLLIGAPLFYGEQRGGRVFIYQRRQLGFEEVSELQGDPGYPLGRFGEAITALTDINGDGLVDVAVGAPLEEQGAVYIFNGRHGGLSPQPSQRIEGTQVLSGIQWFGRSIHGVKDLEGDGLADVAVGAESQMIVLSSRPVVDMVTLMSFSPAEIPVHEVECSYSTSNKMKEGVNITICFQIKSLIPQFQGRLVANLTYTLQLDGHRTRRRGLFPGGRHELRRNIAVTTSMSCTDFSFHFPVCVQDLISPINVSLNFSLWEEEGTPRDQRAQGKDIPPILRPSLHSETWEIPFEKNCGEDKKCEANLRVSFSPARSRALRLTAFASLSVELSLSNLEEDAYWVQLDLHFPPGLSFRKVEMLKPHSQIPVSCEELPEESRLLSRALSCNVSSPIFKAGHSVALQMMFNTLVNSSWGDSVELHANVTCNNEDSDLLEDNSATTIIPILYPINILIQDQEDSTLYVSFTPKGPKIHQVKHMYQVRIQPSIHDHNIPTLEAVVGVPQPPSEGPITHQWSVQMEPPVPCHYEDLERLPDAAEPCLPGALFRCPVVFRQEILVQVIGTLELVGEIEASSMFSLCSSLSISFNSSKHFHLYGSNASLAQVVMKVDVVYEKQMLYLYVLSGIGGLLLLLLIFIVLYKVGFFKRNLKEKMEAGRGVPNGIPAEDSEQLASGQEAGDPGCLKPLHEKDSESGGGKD

Sequence of ICAM-1 (P05362 28-532): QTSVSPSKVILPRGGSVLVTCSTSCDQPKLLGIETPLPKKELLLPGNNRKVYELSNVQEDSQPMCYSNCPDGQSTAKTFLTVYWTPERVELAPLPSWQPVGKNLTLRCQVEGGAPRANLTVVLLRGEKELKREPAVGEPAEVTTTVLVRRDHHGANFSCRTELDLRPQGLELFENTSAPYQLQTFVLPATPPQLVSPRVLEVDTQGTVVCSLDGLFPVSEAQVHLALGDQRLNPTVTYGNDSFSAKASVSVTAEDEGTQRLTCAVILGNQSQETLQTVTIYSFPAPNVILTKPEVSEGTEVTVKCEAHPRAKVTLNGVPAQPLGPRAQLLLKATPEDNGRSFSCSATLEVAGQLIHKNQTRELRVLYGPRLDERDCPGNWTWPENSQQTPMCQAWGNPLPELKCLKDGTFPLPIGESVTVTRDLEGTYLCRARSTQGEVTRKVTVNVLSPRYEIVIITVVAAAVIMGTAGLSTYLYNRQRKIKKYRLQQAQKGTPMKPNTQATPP

“ICAM-1 (from UniProt P05362 28-532) (ligand)” yielded a cytotoxicity of NK92-CD16 cells against NSCLC cells (51chromium-release assay) with the ICAM1-CD11a interaction blocked of 10%.
